Where two headings read alike, the source gives them in different places.
Key:
[1] = target: T1, human FcγRIIC expressed on CHO cells (human, UniProt P31995 43-323); experiment: FACS, CHO cells expressing FcγRIIC
T1 construct: whole, on cells
T1 sequence (looked up): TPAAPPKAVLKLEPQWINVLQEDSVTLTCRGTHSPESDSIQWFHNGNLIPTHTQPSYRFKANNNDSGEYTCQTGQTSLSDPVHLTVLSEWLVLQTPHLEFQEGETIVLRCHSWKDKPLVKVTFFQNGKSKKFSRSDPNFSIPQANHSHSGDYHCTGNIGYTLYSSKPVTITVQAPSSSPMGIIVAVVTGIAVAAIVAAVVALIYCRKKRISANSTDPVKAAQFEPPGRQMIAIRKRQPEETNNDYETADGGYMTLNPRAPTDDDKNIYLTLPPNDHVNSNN
Procedure: For FACS analysis of the IgG mutants' binding to different FcγRs, FcγR overexpressing CHO cells were harvested using trypsin-EDTA and were suspended in cold staining buffer (3% BSA in PBS). Test IgG mutants, which were diluted in staining buffer, were added into the cells. The mixture was incubated 4° C. for 2 hours, and then washed twice with cold staining buffer and re-suspended in PE-labeled anti-human IgG followed by incubation at 4° C. for 2 hours. The mixture was washed twice with staining buffer and re-suspended in 2% PFA in PBS for FACS.

[2] = target: T2, human FcRIIIB protein (MednaBio, E1037) (human, UniProt O75015 17-200); experiment: BLI
T2 construct: Bought; also called FcγRIIIB; FcgRIIIB
T2 sequence (O75015 17-200 limits assumed): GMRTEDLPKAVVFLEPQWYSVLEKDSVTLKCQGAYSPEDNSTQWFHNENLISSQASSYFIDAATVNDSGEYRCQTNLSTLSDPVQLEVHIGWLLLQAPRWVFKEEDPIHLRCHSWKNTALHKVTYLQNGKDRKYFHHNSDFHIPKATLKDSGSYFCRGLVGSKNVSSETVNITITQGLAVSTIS
Outline: (§1)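 Binding was measured by biolayer interferometry on an Octet Red96 System. Commercial human Fc receptor proteins were loaded at 20 μg/mL onto anti-penta-HIS biosensors, which were then dipped into an 8-point 1:3 dilution series of test IgG starting at 300 nM in PBS with 0.1% BSA and 0.02% Tween-20, at pH 7.2 for Fcγ receptors and pH 6 for FcRn. Kd, kon and koff were obtained by global fitting, with data fitted to a 1:1 binding model.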

[3] = target: T3, human FcRIIIA-F158 protein (MednaBio, E1036) (human, UniProt P08637 17-208); experiment: BLI
T3 construct: Bought; also called FcγRIIIA(F)
T3 sequence (P08637 17-208 limits assumed): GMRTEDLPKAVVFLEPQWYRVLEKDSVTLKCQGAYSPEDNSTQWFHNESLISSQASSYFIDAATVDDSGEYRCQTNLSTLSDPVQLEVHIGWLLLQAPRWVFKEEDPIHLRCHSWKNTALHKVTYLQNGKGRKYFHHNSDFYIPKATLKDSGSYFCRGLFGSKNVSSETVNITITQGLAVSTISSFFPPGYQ
Outline: as §1

[4] = target: T4, human FcRIIB/C protein (MednaBio, E1034) (human, UniProt P31994 43-217, limits assumed); experiment: BLI
T4 construct: Bought as FcRIIB/C; also called FcγRIIB; CD32B
T4 sequence (looked up): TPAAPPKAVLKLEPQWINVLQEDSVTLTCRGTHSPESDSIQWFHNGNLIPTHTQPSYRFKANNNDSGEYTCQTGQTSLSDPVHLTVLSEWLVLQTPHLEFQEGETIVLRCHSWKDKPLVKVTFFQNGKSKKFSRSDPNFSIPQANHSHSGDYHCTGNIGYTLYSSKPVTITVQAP
Outline: as §1

[5] = target: T5, human FcRIIIA-V158 protein (MednaBio, E1035) (human, UniProt P08637 17-208); experiment: BLI
T5 construct: Bought; also called FcγRIIIA(V); FcgRIIIA(V)
T5 sequence (P08637 17-208 F176V): as the sequence (P08637 17-208 limits assumed) above, with F160V counted along it
Outline: as §1

[6] = target: T6, human FcRI protein (MednaBio, E1031) (human, UniProt P12314 16-288, limits assumed); experiment: BLI
T6 construct: Bought; loaded on anti-penta-HIS biosensors; also called FcγRI
T6 sequence (P12314 16-288 limits assumed): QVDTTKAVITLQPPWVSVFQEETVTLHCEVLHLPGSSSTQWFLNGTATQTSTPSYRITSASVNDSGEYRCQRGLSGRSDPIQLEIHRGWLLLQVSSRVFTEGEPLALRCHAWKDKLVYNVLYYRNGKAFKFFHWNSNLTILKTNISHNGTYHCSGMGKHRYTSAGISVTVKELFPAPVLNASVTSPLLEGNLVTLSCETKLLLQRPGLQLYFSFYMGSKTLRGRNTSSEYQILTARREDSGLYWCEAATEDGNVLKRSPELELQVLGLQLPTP
Outline: as §1

[7] = target: T7, human FcRn protein (MednaBio, E1032) (human, UniProt P55899 24-297; P61769 21-119); experiment: BLI
T7 construct: Bought; assays at pH 6
T7 sequence (P55899 24-297 limits assumed, form in doubt, chain 1 of 2): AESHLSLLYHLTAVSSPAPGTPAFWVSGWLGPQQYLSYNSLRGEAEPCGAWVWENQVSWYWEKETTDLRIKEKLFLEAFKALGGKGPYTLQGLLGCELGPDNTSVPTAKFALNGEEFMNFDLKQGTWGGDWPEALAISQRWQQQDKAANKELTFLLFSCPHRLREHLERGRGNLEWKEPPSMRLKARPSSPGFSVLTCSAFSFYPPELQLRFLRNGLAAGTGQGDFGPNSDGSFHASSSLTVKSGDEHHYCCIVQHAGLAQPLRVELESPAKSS
T7 sequence (P61769 21-119 limits assumed, form in doubt, chain 2 of 2): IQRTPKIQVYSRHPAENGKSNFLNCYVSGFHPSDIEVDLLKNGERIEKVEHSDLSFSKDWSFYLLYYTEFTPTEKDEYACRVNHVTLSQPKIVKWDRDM
Outline: as §1

[8] = target: T8, human FcRIIA protein (MednaBio, E1033) (human, UniProt P12318 34-218, limits assumed); experiment: BLI
T8 construct: Bought; also called FcγRIIA
T8 sequence (looked up): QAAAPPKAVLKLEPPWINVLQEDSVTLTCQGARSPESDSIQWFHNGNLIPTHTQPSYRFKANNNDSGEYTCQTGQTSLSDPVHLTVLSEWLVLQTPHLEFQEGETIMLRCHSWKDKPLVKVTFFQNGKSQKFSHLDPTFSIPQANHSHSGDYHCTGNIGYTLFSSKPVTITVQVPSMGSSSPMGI
Outline: as §1

[9] = target: T4, human FcRIIB/C protein (MednaBio, E1034); experiment: BLI; remark: listed apart in the source
Outline: as §1

[10] = target: T7, human FcRn protein (MednaBio, E1032); experiment: BLI; remark: listed apart in the source
Outline: as §1

[11] = target: T8, human FcRIIA protein (MednaBio, E1033); experiment: BLI; remark: listed apart in the source
Outline: as §1

[12] = target: T9, human FcγRI expressed on CHO cells (human, UniProt P12314 16-374); experiment: FACS, CHO cells expressing FcγRI
T9 construct: whole, on cells
T9 sequence (P12314 16-374): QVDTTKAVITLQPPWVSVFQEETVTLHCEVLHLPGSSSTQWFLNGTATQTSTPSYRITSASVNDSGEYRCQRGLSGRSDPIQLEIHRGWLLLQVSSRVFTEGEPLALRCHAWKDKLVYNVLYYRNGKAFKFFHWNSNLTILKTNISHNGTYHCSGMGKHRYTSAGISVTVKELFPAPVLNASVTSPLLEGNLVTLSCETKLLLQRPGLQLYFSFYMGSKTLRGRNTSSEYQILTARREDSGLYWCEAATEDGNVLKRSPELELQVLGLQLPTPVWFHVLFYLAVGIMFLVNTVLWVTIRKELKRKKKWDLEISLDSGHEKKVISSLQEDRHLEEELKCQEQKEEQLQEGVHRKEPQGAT
Outline: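 Trypsin-harvested CHO cells overexpressing each FcγR were incubated 2 h at 4 °C with IgG mutants in 3% BSA/PBS. Bound IgG was detected with PE-labeled anti-human IgG (2 h, 4 °C), then cells were fixed in 2% PFA and analysed by flow cytometry.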

[13] = target: T6, human FcRI protein (MednaBio, E1031); experiment: BLI; remark: listed apart in the source
Outline: as §1

| Binder | binding result [1] | Kd [9] [nM] | koff [9] [s⁻¹] | kon [9] [M⁻¹ s⁻¹] | Kd [10] [nM] | koff [10] [s⁻¹] | kon [10] [M⁻¹ s⁻¹] | Kd [11] [nM] | koff [11] [s⁻¹] | kon [11] [M⁻¹ s⁻¹] | Kd [13] [nM] | koff [13] [s⁻¹] | kon [13] [M⁻¹ s⁻¹] | also measured |
| --- | --- | --- | --- | --- | --- | --- | --- | --- | --- | --- | --- | --- | --- | --- |
| anti-CD137 IgG1 with Fc variant G1m19 (antibody, copies: 2 + 2) heavy: EVQLVQSGAEVKKPGESLRISCKGSGYSFSTYWISWVRQMPGKGLEWMGKIYPGDSYTNYSPSFQGQVTISADKSISTAYLQWSSLKASDTAMYYCARGYGIFDYWGQGTLVTVSSASTKGPSVFPLAPSSKSTSGGTAALGCLVKDYFPEPVTVSWNSGALTSGVHTFPAVLQSSGLYSLSSVVTVPSSSLGTQTYICNVNHKPSNTKVDKKVEPKSCDKTHTCPPCPAPELLSVFLFPPKPKDTLMISRTPEVTCVVVDVEHEDPEVKFNWYVDGVEVHNAKTKPREEQYNSTYRVVSVLTVLHQDWLNGKEYKCKVSNKAFPAPIEKTISKAKGQPREPQVYTLPPSREEMTKNQVSLTCLVKGFYPSDIAVEWESNGQPENNYKTTPPVLDSDGSFFLYSKLTVDKSRWQQGNVFSCSVMHEALHNHYTQKSLSLSPGK light: SYELTQPPSVSVSPGQTASITCSGDNIGDQYAHWYQQKPGQSPVLVIYQDKNRPSGIPERFSGSNSGNTATLTISGTQAMDEADYYCATYTGFGSLAVFGGGTKLTVLGQPKAAPSVTLFPPSSEELQANKATLVCLISDFYPGAVTVAWKADSSPVKAGVETTTPSKQSNNKYAASSYLSLTPEQWKSHRSYSCQVTHEGSTVEKTVAPTECS | binds | – | – | – | – | – | – | – | – | – | – | – | – | binding result [2]: no binding (tested: 300 nM); binding result [3]: no binding (tested: 300 nM); Kd [4]: 110 nM; koff [4]: 0.028 s⁻¹; kon [4]: 260000 M⁻¹ s⁻¹; binding result [5]: no binding (tested: 300 nM); Kd [6]: 120 nM; koff [6]: 0.086 s⁻¹; kon [6]: 710000 M⁻¹ s⁻¹; Kd [7]: 13.4 nM; koff [7]: 0.0103 s⁻¹; kon [7]: 770000 M⁻¹ s⁻¹; Kd [8]: 81 nM; koff [8]: 0.019 s⁻¹; kon [8]: 240000 M⁻¹ s⁻¹ |
| anti-CD137 IgG4 with Fc variant G4m17 (antibody, copies: 2 + 2) heavy: EVQLVQSGAEVKKPGESLRISCKGSGYSFSTYWISWVRQMPGKGLEWMGKIYPGDSYTNYSPSFQGQVTISADKSISTAYLQWSSLKASDTAMYYCARGYGIFDYWGQGTLVTVSSASTKGPSVFPLAPCSRSTSESTAALGCLVKDYFPEPVTVSWNSGALTSGVHTFPAVLQSSGLYSLSSVVTVPSSSLGTKTYTCNVDHKPSNTKVDKRVESKYGPPCPPCPAPEFLSVFLFPPKPKDTLMISRTPEVTCVVVDVEQEDPEVQFNWYVDGVEVHNAKTKPREEQFNSTYRVVSVLTVLHQDWLNGKEYKCKVSNKGLPSSIEKTISKAKGQPREPQVYTLPPSQEEMTKNQVSLTCLVKGFYPSDIAVEWESNGQPENNYKTTPPVLDSDGSFFLYSRLTVDKSRWQEGNVFSCSVMHEALHNHYTQKSLSLSLGK light: SYELTQPPSVSVSPGQTASITCSGDNIGDQYAHWYQQKPGQSPVLVIYQDKNRPSGIPERFSGSNSGNTATLTISGTQAMDEADYYCATYTGFGSLAVFGGGTKLTVLGQPKAAPSVTLFPPSSEELQANKATLVCLISDFYPGAVTVAWKADSSPVKAGVETTTPSKQSNNKYAASSYLSLTPEQWKSHRSYSCQVTHEGSTVEKTVAPTECS | binds | 280 | 0.019 | 68000 | 52 | 0.011 | 210000 | 600 | 0.024 | 40000 | – | – | – | binding result [12]: binds |
| anti-CD137 IgG4 with Fc variant G4m28 (antibody, copies: 2 + 2) heavy: EVQLVQSGAEVKKPGESLRISCKGSGYSFSTYWISWVRQMPGKGLEWMGKIYPGDSYTNYSPSFQGQVTISADKSISTAYLQWSSLKASDTAMYYCARGYGIFDYWGQGTLVTVSSASTKGPSVFPLAPCSRSTSESTAALGCLVKDYFPEPVTVSWNSGALTSGVHTFPAVLQSSGLYSLSSVVTVPSSSLGTKTYTCNVDHKPSNTKVDKRVESKYGPPCPPCPAPEFLGPSVFLFPPKPKDTLMISRTPEVTCVVVDVSQEDPEVQFNWYVDGVEVHNAKTKPREEQFNSTYRVVSVLTVLHQDWLNGKEYKCKVSNKGFPSSIEKTISKAKGQPREPQVYTLPPSQEEMTKNQVSLTCLVKGFYPSDIAVEWESNGQPENNYKTTPPVLDSDGSFFLYSRLTVDKSRWQEGNVFSCSVMHEALHNHYTQKSLSLSLGK light: SYELTQPPSVSVSPGQTASITCSGDNIGDQYAHWYQQKPGQSPVLVIYQDKNRPSGIPERFSGSNSGNTATLTISGTQAMDEADYYCATYTGFGSLAVFGGGTKLTVLGQPKAAPSVTLFPPSSEELQANKATLVCLISDFYPGAVTVAWKADSSPVKAGVETTTPSKQSNNKYAASSYLSLTPEQWKSHRSYSCQVTHEGSTVEKTVAPTECS | binds | 180 | 0.034 | 190000 | 20 | 0.012 | 580000 | 1800 | 0.055 | 31000 | 56 | 0.027 | 490000 | – |
| anti-CD137 IgG4 with Fc variant G4m29 (antibody, copies: 2 + 2) heavy: EVQLVQSGAEVKKPGESLRISCKGSGYSFSTYWISWVRQMPGKGLEWMGKIYPGDSYTNYSPSFQGQVTISADKSISTAYLQWSSLKASDTAMYYCARGYGIFDYWGQGTLVTVSSASTKGPSVFPLAPCSRSTSESTAALGCLVKDYFPEPVTVSWNSGALTSGVHTFPAVLQSSGLYSLSSVVTVPSSSLGTKTYTCNVDHKPSNTKVDKRVESKYGPPCPPCPAPEFLGPSVFLFPPKPKDTLMISRTPEVTCVVVDVEQEDPEVQFNWYVDGVEVHNAKTKPREEQFNSTYRVVSVLTVLHQDWLNGKEYKCKVSNKGFPSSIEKTISKAKGQPREPQVYTLPPSQEEMTKNQVSLTCLVKGFYPSDIAVEWESNGQPENNYKTTPPVLDSDGSFFLYSRLTVDKSRWQEGNVFSCSVMHEALHNHYTQKSLSLSLGK light: SYELTQPPSVSVSPGQTASITCSGDNIGDQYAHWYQQKPGQSPVLVIYQDKNRPSGIPERFSGSNSGNTATLTISGTQAMDEADYYCATYTGFGSLAVFGGGTKLTVLGQPKAAPSVTLFPPSSEELQANKATLVCLISDFYPGAVTVAWKADSSPVKAGVETTTPSKQSNNKYAASSYLSLTPEQWKSHRSYSCQVTHEGSTVEKTVAPTECS | binds | 78 | 0.013 | 170000 | 23 | 0.013 | 560000 | 260 | 0.027 | 100000 | 44 | 0.023 | 520000 | – |

From patent US20200392227A1 (LYVGEN BIOPHARMA, published 2020)
